Test [1] concerns the target human insulin-like growth factor I receptor IGF-IR (human) (UniProt P08069). Description: displacement of [125I]IGF-1 on R+ intact cells expressing IGF-IR. In general terms: Displacement assays read how much labelled ligand stays bound in the presence of the test substance.
The target of test [2] is T1, Hybrid-RsA (insulin/IGF-I hybrid receptor with IR isoform A) (human, UniProt P08069 31-1367; P06213 28-1370).
T1 construct: Heterodimer of an IGF-IR half and an IR-A half, captured on plates coated with antibody 83-7; also called HR-A; hybrid receptors A
Description: displacement of [125I]-IGF1 on immunocaptured Hybrid-RsA.

Test [3] concerns the target T2, human insulin-like growth factor I receptor IGF-IR (human, UniProt P08069 31-1367). Description: cell-based or functional assay.
Test [4] concerns the target T2, human insulin-like growth factor I …. Description: displacement of [125I]IGF-1 on R+ intact cells expressing IGF-IR.

Where only a bound is given, the exact number is not on record here.

In the case of αIR3 (antibody), the IC50 in test [1] worked out at 50 pM.

B1: 2D10 (antibody, V domains shown)
VH: EVNLVESGGILVKPGGSLRLSCAASGFTFSNYAMSWVRQTPEKRLEWVASIGSAGYIHYPDSVKGRFTISRDNARNILYLQMSSLRSEDTAMYYCAREGGLVWFAYWGQGTLVTVSA
VL: ETTVTQSPASLSVATGEKVTIRCITSTDIDDDMNWYQQKPGEPPKLLISEGNTLRPGVPSRFSSSGYGTDFVLTIENTLSEDVADYYCLQSDKMPLTFGAGTKLELK
notes: also called hybridoma CNCM I-3214
In the case of B1, the IC50 in test [2] turned out to be 200 pM; in test [4], 150 pM. Further, the “proliferative index of MCF-7 cells at 50 ng/ml IGF1, antibody 5 µg/ml” value (shortened to “proliferative index of MCF-7 cells”) in test [3] was under 5.

B2: 13F5 (antibody, V domains shown)
VH: QAQLQQPGAVLVRPGASVKLSCKASSYSFTDYWMNWVKRRPGQGLQWIGLIHPSDSETRLDQNFKDKATLTVDKFSSTAYMQLNSPTSEDSAVYYCTRSVIYYGNYRWYFDVWGAGTTVTVSS
VL: DVLMTQTPLSLPVSLGDQASISCRSSQTIIHSNGNTYLEWYLQKPGQSPKLLIYKVSNRFSGVPDRFSGSGSGTDFTLKISRVEAEDLGVYYCFQGSHVPYTFGGGTKLEIK
notes: also called hybridoma CNCM I-3193
In the case of B2, the values for the IC50 in test [2] and in test [4] were 350 pM and 200 pM, respectively. The “proliferative index of MCF-7 cells” value in test [3] was under 5.

B3: 12B1 (antibody, V domains shown)
VH: QVQLKESGPDLVAPSQSLSITCTVSGFSLTNYGVHWVRQFPGKGLEWLGVIWAGGNTNYNSALMSRLTISKDNSKSQVFLKMNSLQTDDTAVYYCAREYGSTYVAWFAHWGQGTLVTVSS
VL: ENVLTQSPAIMSASPGEKVTMTCGASSSVSSSFLHWYQQKSGASPKLWIYSTSNLASGVPTRFSGSGSGTSYSLTISSVEAEDAATYYCQQYSGYPLTFGAGTKLELK
Regarding B3, the “proliferative index of MCF-7 cells” value in test [3] was under 5.

B4: 12D5 (antibody, V domains shown)
VH: QVQLKESGPGLVAPSQSLSITCTVSGFSLNEYGVSWIRQPPGKGLEWLGVIWGGRDTYYHSPLKSRLSITKDNSKSQVFLKMNSLQTDDTAMYYCAKHEGMDYWGQGTSVTVSS
VL: DIVMTQSQKFMSTSVGDRVSVTCKASQNVVTNVAWYQHKPGHSPKPLIYSASYRYSGVPDRFTGSGSGTDFTLTINNVQSEDLAEYFCHQYNNFPLTFGAGTKLELK
Consider B4, for which the “proliferative index of MCF-7 cells” value in test [3] was under 5.

As a reminder, the IC50 is the concentration that inhibits the measured activity by half.

The values are drawn from patent publication US20110091479A1 (PIERRE FABRE MEDICAMENT, published 2011).
